The values below are quoted from earlier work in article PMC12114883.

What is called Kd is a measure of binding affinity in units of concentration.

This data set concerns the target CLV1 (Arabidopsis thaliana) (UniProt Q9SYQ8).
Sequence of UniProt Q9SYQ8 (Q9SYQ8 25-638): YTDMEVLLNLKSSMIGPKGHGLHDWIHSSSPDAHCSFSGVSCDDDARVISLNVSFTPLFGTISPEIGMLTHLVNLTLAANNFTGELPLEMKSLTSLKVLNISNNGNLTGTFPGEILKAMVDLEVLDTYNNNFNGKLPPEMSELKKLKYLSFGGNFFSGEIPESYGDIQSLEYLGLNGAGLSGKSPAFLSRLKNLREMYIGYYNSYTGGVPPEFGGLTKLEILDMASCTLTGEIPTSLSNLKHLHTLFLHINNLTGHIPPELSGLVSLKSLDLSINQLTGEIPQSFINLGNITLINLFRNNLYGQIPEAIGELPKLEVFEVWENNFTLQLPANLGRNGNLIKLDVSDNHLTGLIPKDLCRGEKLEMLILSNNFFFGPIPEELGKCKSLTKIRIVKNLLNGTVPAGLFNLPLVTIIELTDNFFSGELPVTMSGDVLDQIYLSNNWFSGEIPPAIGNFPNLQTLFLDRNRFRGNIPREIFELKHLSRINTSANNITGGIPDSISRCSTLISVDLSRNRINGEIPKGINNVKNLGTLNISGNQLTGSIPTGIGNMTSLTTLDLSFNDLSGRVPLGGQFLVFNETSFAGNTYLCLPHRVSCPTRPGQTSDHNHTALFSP

For the substance CLV3 (from UniProt Q9XF04), the Kd was 17.5 nM.
